Assay results: patent US20030207290A1
Several values for one entry are separate records, joined by “and”; a condition that tells them apart may be missing. Equal entries are not always repeated. Where two headings read alike, the source gives them in different places.

How the values were obtained:
[1] = target: T1, EGFR-pY1068 phosphopeptide, LPVPE(p)…; assay: ECL 7-spot plate screen, peptide-BSA spot, biotinylated TnT protein, Ru-streptavidin; signal normalized in two steps
T1 sequence (peptide, phosphotyrosine at (p)Y (residue 6 of the printed peptide; EGFR Tyr1068)): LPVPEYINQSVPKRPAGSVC

[2] = target: EGFR-pY1148 phosphopeptide, …(p)…; assay: as above
[3] = target: EGFR-pY992 phosphopeptide, DADE(p)…; assay: as above
Chain of EGFR-pY992 phosphopeptide, DADE(p)… (peptide, as listed by the source): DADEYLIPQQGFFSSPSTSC

[4] = target: IkBa phosphopeptide (IkBa-24pp), …(p)SGLD(p)SMKDEEYC; assay: ECL 4-spot multi-array binding assay: peptide-BSA spot
Chain of IkBa phosphopeptide (IkBa-24pp), …(p)SGLD(p)SMKDEEYC (peptide, as listed by the source): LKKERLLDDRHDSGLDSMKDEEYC

BSA (control coating) = BSA (control coating) (UniProt P02769); assay: ECL plate binding assay: BSA control on electrode, biotinylated TnT protein, Sulfo-TAG streptavidin
Chain of BSA (control coating) (P02769 25-607 limits assumed): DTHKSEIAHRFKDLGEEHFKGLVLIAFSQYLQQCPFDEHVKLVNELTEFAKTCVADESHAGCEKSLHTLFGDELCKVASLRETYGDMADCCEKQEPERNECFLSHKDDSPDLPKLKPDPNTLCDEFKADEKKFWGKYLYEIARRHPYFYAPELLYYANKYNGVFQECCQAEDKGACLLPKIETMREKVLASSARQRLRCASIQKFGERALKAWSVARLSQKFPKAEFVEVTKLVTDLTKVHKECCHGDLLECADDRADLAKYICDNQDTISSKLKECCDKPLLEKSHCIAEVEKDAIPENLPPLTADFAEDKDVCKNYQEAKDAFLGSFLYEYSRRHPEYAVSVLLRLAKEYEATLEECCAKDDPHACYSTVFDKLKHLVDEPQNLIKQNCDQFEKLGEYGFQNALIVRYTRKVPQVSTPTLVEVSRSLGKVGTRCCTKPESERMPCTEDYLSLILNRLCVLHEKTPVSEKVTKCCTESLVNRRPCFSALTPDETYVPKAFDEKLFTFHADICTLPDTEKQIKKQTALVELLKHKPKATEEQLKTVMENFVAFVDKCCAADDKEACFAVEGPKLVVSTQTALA

[5] = target: IkBa phosphopeptide (IkBa-24pp), …(p)SGLD(p)SMKDEEYC; assay: ECL plate binding assay: peptide-BSA on electrode, biotinylated TnT protein, Sulfo-TAG streptavidin
[6] = target: c-Myc phosphopeptide (Myc-p58Tp62S), …(p)TPPL(p)SPSRRSGL; assay: as above
Chain of c-Myc phosphopeptide (Myc-p58Tp62S), …(p)TPPL(p)SPSRRSGL (peptide, as listed by the source): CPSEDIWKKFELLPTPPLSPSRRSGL

[7] = target: T1, EGFR-pY1068 phosphopeptide, LPVPE(p)…; assay: ECL 4-spot multi-array binding assay: peptide-BSA spot, biotinylated TnT protein, Sulfo-TAG streptavidin
[8] = target: EGFR-pY1148 phosphopeptide, …(p)…; assay: as above
[9] = target: IkBa phosphopeptide (IkBa-24pp), …(p)SGLD(p)SMKDEEYC; assay: as above
[10] = target: IkBa phosphopeptide (IkBa-24pp), …(p)SGLD(p)SMKDEEYC; assay: ECL 7-spot plate screen, peptide-BSA spot, biotinylated TnT protein, Ru-streptavidin; signal normalized in two steps
[11] = target: c-Myc phosphopeptide (Myc-p58Tp62S), …(p)TPPL(p)SPSRRSGL; assay: as above
[12] = target: EGFR-pY992 phosphopeptide, DADE(p)…; assay: ECL 4-spot multi-array binding assay: peptide-BSA spot, biotinylated TnT protein, Sulfo-TAG streptavidin
[13] = target: phosphorylated EGFR (Sigma Chemical Co, self-phosphorylated) (UniProt P00533); assay: TnT protein on streptavidin plate, […] phosphorylated EGFR; bound EGFR detected with TAG-labeled anti-EGFR (clone 225)
[14] = target: phosphorylated EGFR (Sigma Chemical Co, self-phosphorylated) (UniProt P00533); assay: TnT protein on streptavidin plate, […] phosphorylated EGFR; bound EGFR detected by its kinase activity on pEY, 1 hr reaction
[15] = target: phosphorylated EGFR (Sigma Chemical Co, self-phosphorylated) (UniProt P00533); assay: TnT protein on streptavidin plate, […] phosphorylated EGFR; bound EGFR detected by its kinase activity on pEY, 12 hr reaction

Chain of βTRCP2 (EST clone IMAGE 4237375), in vitro translated, biotin-labelled (Q9UKB1 whole entry): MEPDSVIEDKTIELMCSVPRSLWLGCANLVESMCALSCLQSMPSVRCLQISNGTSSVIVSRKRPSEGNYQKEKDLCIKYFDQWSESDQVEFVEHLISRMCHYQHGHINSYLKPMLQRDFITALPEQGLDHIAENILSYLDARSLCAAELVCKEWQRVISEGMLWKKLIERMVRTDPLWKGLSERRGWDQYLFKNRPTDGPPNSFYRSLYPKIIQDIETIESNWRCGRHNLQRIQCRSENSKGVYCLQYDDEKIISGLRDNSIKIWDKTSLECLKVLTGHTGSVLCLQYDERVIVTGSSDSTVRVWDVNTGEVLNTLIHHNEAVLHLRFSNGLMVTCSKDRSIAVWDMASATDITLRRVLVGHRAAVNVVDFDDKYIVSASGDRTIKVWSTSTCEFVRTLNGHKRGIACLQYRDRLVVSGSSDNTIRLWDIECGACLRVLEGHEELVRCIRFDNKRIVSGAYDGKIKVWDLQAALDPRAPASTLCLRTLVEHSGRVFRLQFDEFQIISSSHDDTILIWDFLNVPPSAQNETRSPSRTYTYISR
Chain of βTRCP1 (EST clone IMAGE 3491843), in vitro translated, biotin-labelled (Q9Y297 whole entry): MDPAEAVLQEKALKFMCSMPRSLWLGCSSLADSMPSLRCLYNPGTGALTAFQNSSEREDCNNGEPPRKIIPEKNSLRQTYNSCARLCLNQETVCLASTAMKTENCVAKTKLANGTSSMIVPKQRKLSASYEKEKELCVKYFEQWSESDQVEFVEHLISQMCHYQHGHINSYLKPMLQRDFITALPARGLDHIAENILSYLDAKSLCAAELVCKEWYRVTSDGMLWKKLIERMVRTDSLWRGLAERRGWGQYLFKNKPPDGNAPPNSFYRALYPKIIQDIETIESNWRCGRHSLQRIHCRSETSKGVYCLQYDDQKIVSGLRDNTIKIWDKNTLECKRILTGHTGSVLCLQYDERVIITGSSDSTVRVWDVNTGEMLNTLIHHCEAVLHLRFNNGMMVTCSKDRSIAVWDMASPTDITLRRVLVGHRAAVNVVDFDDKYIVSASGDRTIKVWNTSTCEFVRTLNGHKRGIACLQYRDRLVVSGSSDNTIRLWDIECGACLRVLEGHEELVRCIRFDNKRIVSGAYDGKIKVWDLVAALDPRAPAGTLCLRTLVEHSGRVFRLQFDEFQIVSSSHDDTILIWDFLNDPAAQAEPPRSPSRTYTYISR

“Shc (EST clone IMAGE 3911953), in vitro translated, biotin-labelled (from UniProt P29353 1-473)” gave a normalized ECL signal [1] of 1, a normalized ECL signal [2] of 3 and a normalized ECL signal [3] of 1.
For “Shc (EST clone IMAGE 3909654), in vitro translated, biotin-labelled (from UniProt P29353 1-473)”, the normalized ECL signal [1] was 1, the normalized ECL signal [2] was 3 and the normalized ECL signal [3] was 1.
For “βTRCP1 (EST clone IMAGE 3491843), in vitro translated, biotin-labelled (from UniProt Q9Y297 1-605)”, the fold ECL signal over TnT reaction without exogenous DNA [4] was 100 fold, the Average ECL signal (BSA (control coating)) was 1720 ECL signal and the Average ECL signal [5] was 40900 ECL signal. The Average ECL signal [6] was 2120 ECL signal, the ECL signal [7] was 24 ECL signal and the ECL signal [8] was 36 ECL signal. The ECL signal [9] was 2470 ECL signal, the normalized ECL signal [2] was 1 and the normalized ECL signal [10] was 12. For the same substance, the normalized ECL signal ([10]; positive control preparation) was 23 and the normalized ECL signal [11] was 8 and 4.
“Phospholipase C gamma 1 (PLCγ) (EST clone IMAGE 4419252), in vitro translated, biotin-labelled (from UniProt P19174 1-1290) (enzyme)” showed an ECL signal [7] of 1480 ECL signal, an ECL signal [8] of 110 ECL signal and an ECL signal [12] of 1400 ECL signal. The normalized ECL signal [1] was 55, the normalized ECL signal [2] was 4 and the normalized ECL signal [3] was 10. For the same substance, the ECL signal [13] was 30400 ECL signal, the ECL signal [14] was 18000 ECL signal and the ECL signal [15] was 39800 ECL signal.
For “βTRCP2 (EST clone IMAGE 4237375), in vitro translated, biotin-labelled (from UniProt Q9UKB1 1-542)”, the fold ECL signal over TnT reaction without exogenous DNA [4] was 100 fold, the Average ECL signal (BSA (control coating)) was 672 ECL signal and the Average ECL signal [5] was 21500 ECL signal. The Average ECL signal [6] was 896 ECL signal, the ECL signal [7] was 24 ECL signal and the ECL signal [8] was 35 ECL signal. For the same substance, the ECL signal [9] was 5040 ECL signal, the normalized ECL signal [2] was 1 and the normalized ECL signal [11] was 10.
With “Shc (EST clone IMAGE 3909921), in vitro translated, biotin-labelled (from UniProt P29353 1-473)” the normalized ECL signal [1] was 1, the normalized ECL signal [2] was 5 and the normalized ECL signal [3] was 1.
For “mCBP (EST clone IMAGE 3872466), in vitro translated, biotin-labelled”, the Average ECL signal (BSA (control coating)) was 352 ECL signal, the Average ECL signal [5] was 371 ECL signal and the Average ECL signal [6] was 351 ECL signal. It also gave an ECL signal [7] of 126 ECL signal, an ECL signal [8] of 278 ECL signal and an ECL signal [12] of 498 ECL signal. For the same substance, the ECL signal [9] was 446 ECL signal.
“Shc (EST clone IMAGE 3914467), in vitro translated, biotin-labelled (from UniProt P29353 1-473)” gave a normalized ECL signal [1] of 1, a normalized ECL signal [2] of 3 and a normalized ECL signal [3] of 1.
